Laboratory results taken from paper PMC5101508 (Scientific Reports, 2016).

Tests used:
[1] = molecular target: monoclonal antibody F240 (IgG) (human (isolated from an HIV infected individual)); test: SPR
mAb F240 [2] = test: Isothermal Titration Calorimetry (ITC) of F240 with gp41 peptides; type: binding; settings: 25 °C, 1X PBS pH 7.4, F240 111 μM in syringe, peptide 11 μM in cell, single-site model
Description: Sensorgrams were obtained at room temperature for mAb F240 immobilized on a Protein A chip with 0–200 nM concentrations of gp41 peptide passed over the chip. […] Standard deviations of ka, kd and KD for two experiments are shown. […] The binding isotherms were fitted to a one-site binding model using Origin for ITC version 7.0383 (MicroCal). The fitting yields the stoichiometry (N), the binding constant (KD), and the enthalpy (ΔH) of the binding reaction.
The ITC experiments were performed using an ITC200 system (Micro-Cal) as previously described by Bradshaw et al.[61], at 25 °C in a 1X PBS buffer pH 7.4. F240 was dialyzed against this buffer overnight before the experiment. The peptides were dissolved in the final dialysis buffer. […] Titrations were performed at 25 °C with 17 injections of 2.42 μl aliquots, with 210–240 second intervals between injections. Heats of dilutions were measured and subtracted from each data set. Data were corrected for the heat of dilution and fitted using a nonlinear least-squares routine using a single-site binding model with Origin for ITC version 7.0383 (MicroCal).

mAb F240 [3] = test: Surface Plasmon Resonance (SPR) of gp41 peptide on captured F240 IgG; type: binding; settings: reduced vs oxidized peptide
Description: Sensorgrams were obtained at room temperature for mAb F240 immobilized on a Protein A chip with 0–200 nM concentrations of gp41 peptide passed over the chip. […] Standard deviations of ka, kd and KD for two experiments are shown.
The binding affinity and kinetics of F240 for gp41_583–618 peptide and gp41_583–618 peptide pretreated to reduce C^598-C^604 disulfide bond was assessed by Surface Plasmon Resonance on a Biacore T-100 (GE Healthcare) at 25 °C. The reduced gp41_583–618 was generated by treating the oxidized form of the same peptide with 0.05 M of TCEP. Protein A was first immobilized onto the second of the two flow cells on a CM5 chip to ~3000 response units (RU) and the first flow cell blocked with a standard amine coupling protocol (GE Healthcare). F240 IgG to be evaluated was then captured onto the second flow cell by flowing a 5–10 nM solution of mAb at 10 μl/min flow rate for 30 seconds. […] Varying concentrations (0–200 nM) of the oxidized and reduced forms of the peptide were then passed over both flow cells at a flow rate of 30 μl/min for 200 seconds and allowed to dissociate by passing buffer over both cells at the same flow rate for 800 seconds. The cells were regenerated with a 30 second injection of 0.1 M glycine pH 3.0 with a flow rate of 100 μl/min and the antibody reloaded onto the second flow cell for each peptide concentration. […]

[4] = molecular target: HIV-1 BaL envelope glycoprotein (Env, gp120/gp41) on AT-2-inactivated virions (HIV-1 (clade B, strain BaL)); test: fluorescence correlation spectroscopy (FCS); Alexa 647 labelled mAb (5 μg/ml) incubated with 10 μg/ml of free AT-2-inactivated HIV-1 BaL virions for 90 minutes at 37 °C; in solution
[5] = molecular target: gp41 583-618 peptide, oxidized form (Cys598-Cys604 disulfide) (HIV-1 (clade B, strain BaL)); test: ITC
[6] = tested on: EGFP-CEM-NKr-CCR5-SNAP cells sensitized with AT-2–inactivated HIV-1 BaL; test: RFADCC, virion bound assay; type: cell-based; settings: curves normalized for plateau cytotoxicity values using C11 (Fig. 5D); two independent experiments in duplicate
Text: (§1) EGFP-CEM-NKr-CCR5-SNAP cells sensitized with AT-2–inactivated HIV-1 BaL were (C) stained for antibody binding and (D) ADCC using the modified rapid fluorometric antibody-mediated cytotoxicity assay (RFADCC)[35]. Cluster A CD4i antibodies A32, N5-i5, C11 and Synagis were used as controls. The plot represents a mean of two independent experiments normalized to the average A32 values with error bars showing the range between experiments.
(§2) In brief, EGFP-CEM-NKr-CCR5-SNAP target cells were first stained with the SNAP-Surface Alexa Fluor 647 dye, washed twice and spinoculated with HIV-1 BaL AT-2 inactivated virus at 2000 RPM for 2 h at 12 °C. Subsequently, AT-2 BaLsensitized double-stained targets were washed twice with cold R10 medium and then subjected to testing for antibody binding (detected with PE-labeled mouse anti-human IgG secondary antibody, BD Bioscence cat. 555787) and RFADCC assay, following the previously described protocol. Samples were collected on a BD Fortessa Special Order instrument (BD Biosciences) and analyzed using FlowJo software (Tree Star, Ashland, OR). The HIV-1BaL AT-2 inactivated virus was generously provided by Dr. Jeff Lifson, NCI, Frederick. The ADCC data represent the typical results obtained in two independent experiments done in duplicate and the bars indicate the range of the values of cytotoxicity.

[7] = molecular target: T1, gp41 583-618 peptide, oxidized form (Cys598-Cys604 disulfide) (HIV-1 (clade B, strain BaL), disulfide bond between Cys598 and Cys604 (oxidized peptide)); test: SPR
T1 peptide: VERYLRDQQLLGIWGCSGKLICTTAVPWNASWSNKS

[8] = molecular target: T2, gp41 583-618 peptide, reduced form (pretreated with TCEP) (HIV-1 (clade B, strain BaL)); test: SPR; peptide pretreated with TCEP
T2 peptide: T1 peptide

[9] = molecular target: T1, gp41 583-618 peptide, oxidized form …; test: SPR
[10] = molecular target: T2, gp41 583-618 peptide, reduced form …; test: SPR; peptide pretreated with TCEP
[11] = tested on: EGFP-CEM-NKr-CCR5-SNAP cells sensitized with AT-2–inactivated HIV-1 BaL; test: Antibody binding (staining) to virion-sensitized cells, virion bound assay; type: cell-based; settings: Fig. 5C; PE-labeled anti-human IgG secondary antibody; mean of two independent experiments normalized to A32
Text: as §1, §2

[12] = tested on: EGFP-CEM-NKr-CCR5-SNAP cells infected with BaL infectious molecular clone; test: Cell-surface staining of IMC BaL infected EGFP-CEM-NKr-CCR5-SNAP cells; type: cell-based, HIV-1 BaL
Description: For BaL-infected cells two gates were delineated: p24+/CD4− and p24+low/CD4+; and one for Mock p24−/CD4+. The plot represents a mean of two independent experiments normalized to the average A32 values with error bars showing the range between experiments.
EGFP-CEM-NKr-CCR5-SNAP cells were spinoculated for 2 hr at 2000 RPM at 12 °C in 96-well U-bottom plate (5 × 10^5 cells/well) with 240 ng of IMC BaL virus (control cells were incubated without virus), as measured by HIV-1 p24 antigen capture ELISA. Afterward, the viral inoculum was diluted 1:2 in R10 medium containing G418 1.5 mg/ml, and cells and virus were placed into one well of a 12-well flat-bottom plate. The cells were then cultured adding fresh medium every 2 days. […] After a wash, cells were then fixed and permeabilized using the Cytofix/Cytoperm Kit (BD-PharMingen, San Diego, Calif.) for 20 min at 4 °C. Subsequently, permeabilized cells were washed once with the buffer provided by the manufacturer, resuspended and stained for 30 min at RT with 5 μl (PE)-conjugated mouse anti-p24 mAb (KC57-RD1; Beckman Coulter, Inc.). After two additional washes, HIV-1- or mock were fixed in PFA 2% analyzed with an LSRII Fortessa flow cytometer (BDBiosciences) and data analysis was performed with FlowJo software (Tree Star,Inc., San Carlos, Calif.). The plot represents a mean of two independent experiments normalized to the average A32 values with error bars showing the range between experiments.

“gp41 583-618 peptide, reduced form (pretreated with TCEP)” showed a fold lower affinity than the oxidized peptide [1] of 14 fold.

“VERYLRDQQL[10] LGIWGCSGKL[20] ICTTAVPWNA[30] SWSNKS (disulfide) [gp41_583–618]” was tested, and the “binding constant KB” value (mAb F240 [2]) was 2.95e+07 M⁻¹ and the Kd (mAb F240 [2]; read-out: dissociation constant KD) was 34 nM.

“VERYLRDQQL[10] LGIWGCSGKL[20] ICTTAVPWNA[30] SWSNKS [reduced gp41_583–618, gp41_583–618 pretreated with TCEP to reduce the C598-C604 disulfide bond]” was tested, and the “lower affinity as compared to its oxidized form” value (mAb F240 [3]) was “approximately 14 fold”.

In the case of monoclonal antibody F240 (IgG), the percent of binding [4] is reported as 40%, the Ka [5] is reported as 2.95e+07 M⁻¹ and the Kd [5] is reported as 34 nM.

“Synagis: Synagis (MedImmune), control mAb [reference compound]” was tested, and the “AUC (Area Under Curve), ADCC” value [6] was 18.2 cytotoxicity/μg/ml.

B1: monoclonal antibody F240 (IgG) (antibody, V domains shown)
VH: QVQLVQSGGGVVKPGASSRLSCAASGFTFTDYYMSWIRQAPGKGLEWVAYITKDGSEKKYADSLQHRFAVSRDNANNLVFLQLNTVEDDDTGVYYCARDDGYYDRSGYYGVFDLWGQGIRVTVSS
VL: EFLLTQSPDSLAVTLGETATITCRSSRNILHSLNNKNYLAWYQQRPGQAPKLLVIWASMRVSGVADRFSGSGSGTDFALTISSLQPEDAAVYYCQHYYTTHRTFGQGTRVEIR
modifications: Alexa Fluor 647 on primary amines (only in the FCS experiments and in the staining of IMC BaL-infected cells) | Alexa Fluor 647 on primary amines (only in the FCS experiments and in the staining of IMC BaL-infected cells)
For B1, the koff [7] was 0.00083 s⁻¹, the Kd [8] was 60 nM and the Kd [9] was 4.4 nM. For the same molecule, the koff [10] was 0.0028 s⁻¹.

B2: N5-i5: Cluster A CD4i antibody used as control (antibody, V domains shown)
VH: EVQLVESGGGLVQPGGSLRLSCAASGFTFSTYAMSWVRQAPGKGLEWVSSINNSGRNTFSADSVKGRFTISRDNSKNTLFLVMNSLRAEDTAVYYCAKDLRLGGGSDYWGQGTLVTVSS
VL: QSALTQPASVSGSPGQSITISCTGTSSDVGSYNFVSWYQQHPGKAPKLMIYEVSERPSGISNRFSGSKSGNTASLTISGLQAEDEADYYCSSYAGSTTFRVFGGGTKLTVR
In the case of B2, the “recognition (binding) of virion-sensitized cells, in words” value [11] is reported as “Lower than reported in ref. [35]”, the “binding to mock-infected cells” value ([12]; mock p24−/CD4+ population) is reported as “did not recognize” and the “binding to productively infected cells” value ([12]; p24+/CD4− population, 5 days post-infection) is reported as “did not recognize”. The “binding to CD4-preserving cells with virus” value ([12]; p24+low/CD4+ population, 5 days post-infection) was “very effectively stained” and the “AUC (Area Under Curve), ADCC” value [6] was 374.8 cytotoxicity/μg/ml.
